Assay results from PMC13016609, “UV irradiation alters TFAM binding specificity and compaction of DNA”.

Key:
[1] = molecular target: T1, TFAM (no MTS) (Homo sapiens, UniProt Q00059 43-246); experiment: fluorescence anisotropy; Hill n 2.64±0.22; FP: 25 mM HEPES, 10 mM Mg(OAc)2, 25 mM NaOAc, 75 mM KOAc, pH 7.5, 1 nM DNA, TFAM 0-15 nM diluted on ice (read temperature not stated); AFM oligos: on ice, 2 min; conditions: protein: recombinant; label: 5' 6-FAM on strand 1; blunt
T1 sequence: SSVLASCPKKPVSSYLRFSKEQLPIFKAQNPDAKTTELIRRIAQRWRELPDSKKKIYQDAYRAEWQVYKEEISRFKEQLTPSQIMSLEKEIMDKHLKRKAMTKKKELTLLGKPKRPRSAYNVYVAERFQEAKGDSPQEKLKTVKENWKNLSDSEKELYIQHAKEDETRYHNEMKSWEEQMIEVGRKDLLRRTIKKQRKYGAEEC

[2] = molecular target: T1, TFAM (no MTS); experiment: fluorescence anisotropy; +UVC; Hill n 2.61±0.25; FP: 25 mM HEPES, 10 mM Mg(OAc)2, 25 mM NaOAc, 75 mM KOAc, pH 7.5, 1 nM DNA, TFAM 0-15 nM diluted on ice (read temperature not stated); AFM oligos: on ice, 2 min; conditions: protein: recombinant; label: 5' 6-FAM on strand 1; blunt
[3] = molecular target: T1, TFAM (no MTS); experiment: fluorescence anisotropy; Hill n 5.06±0.09; FP: 25 mM HEPES, 10 mM Mg(OAc)2, 25 mM NaOAc, 75 mM KOAc, pH 7.5, 1 nM DNA, TFAM 0-15 nM diluted on ice (read temperature not stated); AFM oligos: on ice, 2 min; conditions: protein: recombinant; label: 5' 6-FAM on strand 1 (FP); blunt
[4] = molecular target: T1, TFAM (no MTS); experiment: fluorescence anisotropy; +UVC; Hill n 4.76±0.11; FP: 25 mM HEPES, 10 mM Mg(OAc)2, 25 mM NaOAc, 75 mM KOAc, pH 7.5, 1 nM DNA, TFAM 0-15 nM diluted on ice (read temperature not stated); AFM oligos: on ice, 2 min; conditions: protein: recombinant; label: 5' 6-FAM on strand 1; blunt
[5] = molecular target: T1, TFAM (no MTS); experiment: fluorescence anisotropy; Hill n 2.84±0.14; FP: 25 mM HEPES, 10 mM Mg(OAc)2, 25 mM NaOAc, 75 mM KOAc, pH 7.5, 1 nM DNA, TFAM 0-15 nM diluted on ice (read temperature not stated); AFM oligos: on ice, 2 min; conditions: protein: recombinant; label: 5' 6-FAM on strand 1; blunt
[6] = molecular target: T1, TFAM (no MTS); experiment: fluorescence anisotropy; +UVC; Hill n 2.27±0.26; FP: 25 mM HEPES, 10 mM Mg(OAc)2, 25 mM NaOAc, 75 mM KOAc, pH 7.5, 1 nM DNA, TFAM 0-15 nM diluted on ice (read temperature not stated); AFM oligos: on ice, 2 min; conditions: protein: recombinant; label: 5' 6-FAM on strand 1; blunt
[7] = molecular target: T1, TFAM (no MTS); experiment: fluorescence anisotropy; Hill n 3.04±0.19; FP: 25 mM HEPES, 10 mM Mg(OAc)2, 25 mM NaOAc, 75 mM KOAc, pH 7.5, 1 nM DNA, TFAM 0-15 nM diluted on ice (read temperature not stated); AFM oligos: on ice, 2 min; conditions: protein: recombinant; label: 5' 6-FAM on strand 1; blunt
[8] = molecular target: T1, TFAM (no MTS); experiment: fluorescence anisotropy; +UVC; Hill n 1.90±0.12; FP: 25 mM HEPES, 10 mM Mg(OAc)2, 25 mM NaOAc, 75 mM KOAc, pH 7.5, 1 nM DNA, TFAM 0-15 nM diluted on ice (read temperature not stated); AFM oligos: on ice, 2 min; conditions: protein: recombinant; label: 5' 6-FAM on strand 1; blunt
[9] = molecular target: T1, TFAM (no MTS); experiment: fluorescence anisotropy; Hill n 2.63±0.22; FP: 25 mM HEPES, 10 mM Mg(OAc)2, 25 mM NaOAc, 75 mM KOAc, pH 7.5, 1 nM DNA, TFAM 0-15 nM diluted on ice (read temperature not stated); AFM oligos: on ice, 2 min; conditions: protein: recombinant; label: 5' 6-FAM on strand 1; blunt
[10] = molecular target: T1, TFAM (no MTS); experiment: fluorescence anisotropy; Hill n 2.15±0.24; FP: 25 mM HEPES, 10 mM Mg(OAc)2, 25 mM NaOAc, 75 mM KOAc, pH 7.5, 1 nM DNA, TFAM 0-15 nM diluted on ice (read temperature not stated); AFM oligos: on ice, 2 min; conditions: protein: recombinant; label: 5' 6-FAM on strand 1; blunt
[11] = molecular target: T1, TFAM (no MTS); experiment: fluorescence anisotropy; +UVC; Hill n 1.81±0.05; FP: 25 mM HEPES, 10 mM Mg(OAc)2, 25 mM NaOAc, 75 mM KOAc, pH 7.5, 1 nM DNA, TFAM 0-15 nM diluted on ice (read temperature not stated); AFM oligos: on ice, 2 min; conditions: protein: recombinant; label: 5' 6-FAM on strand 1; blunt
[12] = molecular target: T1, TFAM (no MTS); experiment: fluorescence anisotropy; Hill n 3.09±0.11; FP: 25 mM HEPES, 10 mM Mg(OAc)2, 25 mM NaOAc, 75 mM KOAc, pH 7.5, 1 nM DNA, TFAM 0-15 nM diluted on ice (read temperature not stated); AFM oligos: on ice, 2 min; conditions: protein: recombinant; label: 5' 6-FAM on strand 1; blunt
[13] = molecular target: T1, TFAM (no MTS); experiment: fluorescence anisotropy; +UVC; Hill n 4.38±0.33; FP: 25 mM HEPES, 10 mM Mg(OAc)2, 25 mM NaOAc, 75 mM KOAc, pH 7.5, 1 nM DNA, TFAM 0-15 nM diluted on ice (read temperature not stated); AFM oligos: on ice, 2 min; conditions: protein: recombinant; label: 5' 6-FAM on strand 1; blunt
[14] = molecular target: T1, TFAM (no MTS); experiment: fluorescence anisotropy; Hill n 2.77±0.17; FP: 25 mM HEPES, 10 mM Mg(OAc)2, 25 mM NaOAc, 75 mM KOAc, pH 7.5, 1 nM DNA, TFAM 0-15 nM diluted on ice (read temperature not stated); AFM oligos: on ice, 2 min; conditions: protein: recombinant; label: 5' 6-FAM on strand 1; blunt
[15] = molecular target: T1, TFAM (no MTS); experiment: fluorescence anisotropy; +UVC; Hill n 2.18±0.14; FP: 25 mM HEPES, 10 mM Mg(OAc)2, 25 mM NaOAc, 75 mM KOAc, pH 7.5, 1 nM DNA, TFAM 0-15 nM diluted on ice (read temperature not stated); AFM oligos: on ice, 2 min; conditions: protein: recombinant; label: 5' 6-FAM on strand 1; blunt
[16] = molecular target: T1, TFAM (no MTS); experiment: fluorescence anisotropy; Hill n 2.40±0.43; FP: 25 mM HEPES, 10 mM Mg(OAc)2, 25 mM NaOAc, 75 mM KOAc, pH 7.5, 1 nM DNA, TFAM 0-15 nM diluted on ice (read temperature not stated); AFM oligos: on ice, 2 min; conditions: protein: recombinant; label: 5' 6-FAM on strand 1; blunt
[17] = molecular target: T1, TFAM (no MTS); experiment: fluorescence anisotropy; +UVC; Hill n 2.20±0.13; FP: 25 mM HEPES, 10 mM Mg(OAc)2, 25 mM NaOAc, 75 mM KOAc, pH 7.5, 1 nM DNA, TFAM 0-15 nM diluted on ice (read temperature not stated); AFM oligos: on ice, 2 min; conditions: protein: recombinant; label: 5' 6-FAM on strand 1; blunt
[18] = molecular target: T1, TFAM (no MTS); experiment: fluorescence anisotropy; Hill n 3.85±0.49; FP: 25 mM HEPES, 10 mM Mg(OAc)2, 25 mM NaOAc, 75 mM KOAc, pH 7.5, 1 nM DNA, TFAM 0-15 nM diluted on ice (read temperature not stated); AFM oligos: on ice, 2 min; conditions: protein: recombinant; label: 5' 6-FAM on strand 1 (FP); blunt
[19] = molecular target: T1, TFAM (no MTS); experiment: fluorescence anisotropy; +UVC; Hill n 2.94±0.40; FP: 25 mM HEPES, 10 mM Mg(OAc)2, 25 mM NaOAc, 75 mM KOAc, pH 7.5, 1 nM DNA, TFAM 0-15 nM diluted on ice (read temperature not stated); AFM oligos: on ice, 2 min; conditions: protein: recombinant; label: 5' 6-FAM on strand 1; blunt

B1: ND2_401 (dsDNA)
DNA 1: CAAATGGGCCATTATCGAAGAATTCACAAAAAA
DNA 2: TTTTTTGTGAATTCTTCGATAATGGCCCATTTG
Work on B1 yielded a Kd [1] of 4.36 ± 0.24 nM.

B2: ND2_401 +UVC (dsDNA)
DNA 1: B1 DNA 1
DNA 2: B1 DNA 2
modifications: UVC 1500 J/m2 photolesions (positions undefined)
With B2 the Kd [2] was 6.24 ± 0.15 nM.

B3: ND4_473 (dsDNA)
DNA 1: CGGCGCAGTCATTCTCATAATCGCCCACGGGCT
DNA 2: AGCCCGTGGGCGATTATGAGAATGACTGCGCCG
Work on B3 yielded a Kd [3] of 4.95 ± 0.03 nM.

B4: ND4_473 +UVC (dsDNA)
DNA 1: B3 DNA 1
DNA 2: B3 DNA 2
modifications: UVC 1500 J/m2 photolesions (positions undefined)
B4 showed a Kd [4] of 5.36 ± 0.14 nM.

B5: ND6_87 (dsDNA)
DNA 1: TTCCTACACTATTAAAGTTTACCACAACCACCA
DNA 2: TGGTGGTTGTGGTAAACTTTAATAGTGTAGGAA
Binder B5 has a Kd [5] of 5.2 ± 0.32 nM.

B6: ND6_87 +UVC (dsDNA)
DNA 1: B5 DNA 1
DNA 2: B5 DNA 2
modifications: UVC 1500 J/m2 photolesions (positions undefined)
B6 gave a Kd [6] of 7.63 ± 0.21 nM.

B7: ND1_288 (dsDNA)
DNA 1: CTCCACACTAGCAGAGACCAACCGAACCCCCTT
DNA 2: AAGGGGGTTCGGTTGGTCTCTGCTAGTGTGGAG
Binder B7 has a Kd [7] of 3.41 ± 0.03 nM.

B8: ND1_288 +UVC (dsDNA)
DNA 1: B7 DNA 1
DNA 2: B7 DNA 2
modifications: UVC 1500 J/m2 photolesions (positions undefined)
Work on B8 yielded a Kd [8] of 6.12 ± 0.22 nM.

B9: ND3_92 (dsDNA)
DNA 1: TTAGTAGCTATTACCTTCTTATTATTTGATCTA
DNA 2: TAGATCAAATAATAAGAAGGTAATAGCTACTAA
Work on B9 yielded a Kd [9] of 4.53 ± 0.13 nM.

B10: TRNT_10 (dsDNA)
DNA 1: CTTGTAGTATAAACTAATACACCAGTCTTGTAA
DNA 2: TTACAAGACTGGTGTATTAGTTTATACTACAAG
In the case of B10, the Kd [10] is reported as 4.24 ± 0.12 nM.

B11: TRNT_10 +UVC (dsDNA)
DNA 1: B10 DNA 1
DNA 2: B10 DNA 2
modifications: UVC 1500 J/m2 photolesions (positions undefined)
For B11, the Kd [11] was 7.79 ± 0.8 nM.

B12: ND1_353 40mer (dsDNA)
DNA 1: CACAAACATTATTATAATAAACACCCTCACCACTACAATC
DNA 2: GATTGTAGTGGTGAGGGTGTTTATTATAATAATGTTTGTG
B12 showed a Kd [12] of 5.69 ± 0.15 nM.

B13: ND1_353 40mer +UVC (dsDNA)
DNA 1: B12 DNA 1
DNA 2: B12 DNA 2
modifications: UVC 1500 J/m2 photolesions (positions undefined)
For B13, the Kd [13] was 7.25 ± 0.39 nM.

B14: COX2_229 (dsDNA)
DNA 1: GCCCCCATTCGTATAATAATTACATCACAAGAC
DNA 2: GTCTTGTGATGTAATTATTATACGAATGGGGGC
B14 gave a Kd [14] of 3.94 ± 0.03 nM.

B15: COX2_229 +UVC (dsDNA)
DNA 1: B14 DNA 1
DNA 2: B14 DNA 2
modifications: UVC 1500 J/m2 photolesions (positions undefined)
In the case of B15, the Kd [15] is reported as 4.87 ± 0.35 nM.

B16: ND1_450 (dsDNA)
DNA 1: ACTCACCCTAGCATTACTTATATGATATGTCTC
DNA 2: GAGACATATCATATAAGTAATGCTAGGGTGAGT
For B16, the Kd [16] was 4.33 ± 0.17 nM.

B17: ND1_450 +UVC (dsDNA)
DNA 1: B16 DNA 1
DNA 2: B16 DNA 2
modifications: UVC 1500 J/m2 photolesions (positions undefined)
B17 was tested, and the Kd [17] was 6.36 ± 0.51 nM.

B18: ND1_353 (dsDNA)
DNA 1: ATTATTATAATAAACACCCTCACCACTACAATC
DNA 2: GATTGTAGTGGTGAGGGTGTTTATTATAATAAT
In the case of B18, the Kd [18] is reported as 7.56 ± 0.34 nM.

B19: ND1_353 +UVC (dsDNA)
DNA 1: B18 DNA 1
DNA 2: B18 DNA 2
modifications: UVC 1500 J/m2 photolesions (positions undefined)
Work on B19 yielded a Kd [19] of 7.66 ± 0.88 nM.
